This experiment concerns the target T1, full-length mouse wild-type Keap1-6xHis (Kelch-like ECH-associated protein 1) (mouse, UniProt Q9Z2X8 1-624).
T1 construct: Keap1, mouse, full-length protein Met1-Cys624; also called full-length Keap1; Keap1 homodimer; not shown: 6xHis, C-terminal, kept
Kind of experiment: NMR titration; competition: preformed complex of 0.05 mM 13C/15N-Neh2 and 0.1 mM Keap1 (1:2) titrated with p62-KIR peptide (phosphorylated 0.25-5 mM, non-phosphorylated 1.0 and 5 mM); 20 mM Tris-HCl pH 8.0, 100 mM NaCl, 4 mM TCEP; read-out is recovery of Neh2 signals. The conditions noted are these: both partners purified.

Square brackets hold non-standard residues; d marks the D form. Ends that are not written are not given here. pS = N[C@@H](COP(=O)(O)O)C(=O)O

T1 sequence (Q9Z2X8 whole entry): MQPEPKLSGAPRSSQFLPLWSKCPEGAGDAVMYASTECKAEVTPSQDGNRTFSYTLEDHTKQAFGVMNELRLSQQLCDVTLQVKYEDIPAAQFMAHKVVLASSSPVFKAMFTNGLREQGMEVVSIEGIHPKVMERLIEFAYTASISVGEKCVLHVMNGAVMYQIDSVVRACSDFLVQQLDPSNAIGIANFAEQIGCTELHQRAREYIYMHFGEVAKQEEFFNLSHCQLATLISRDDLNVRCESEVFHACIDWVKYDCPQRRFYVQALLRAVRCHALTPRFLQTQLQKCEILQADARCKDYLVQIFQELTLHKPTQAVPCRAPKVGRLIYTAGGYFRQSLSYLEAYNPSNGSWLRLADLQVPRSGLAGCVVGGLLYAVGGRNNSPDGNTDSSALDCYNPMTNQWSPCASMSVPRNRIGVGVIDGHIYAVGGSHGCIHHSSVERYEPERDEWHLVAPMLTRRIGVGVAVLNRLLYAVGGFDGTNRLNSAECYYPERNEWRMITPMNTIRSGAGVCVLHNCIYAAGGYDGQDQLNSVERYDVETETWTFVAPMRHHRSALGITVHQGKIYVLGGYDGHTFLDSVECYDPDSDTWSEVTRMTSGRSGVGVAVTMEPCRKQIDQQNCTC

B1: phosphorylated p62-KIR peptide (peptide)
peptide: KEVDP[pS]TGELQSLQ
notes: also called P-p62-KIR; p62-pKIR peptide; source: bought: Toray Research Center
As to B1, the binding result is reported as “binds”.

The record behind these values is publication PMC8121781, “Molecular basis for the disruption of Keap1–Nrf2 interaction via Hinge & Latch mechanism” (Communications Biology, 2021).
